Assay results: patent US20250295796A1, “CELL PENETRATING POLYPEPTIDES (CPPS) AND THEIR USE IN HUMAN THERAPY” (RDP PHARMA AG, priority 2021, published 2025)

Assays:
[1] = Toxicology experiments and various tumor models, cardiotoxicity; format: in vivo
[2] = tested on: murine Lewis lung carcinoma; assay: Lewis lung carcinoma (LLC) model, primary tumor growth and metastasis
Description: The efficacy of CROMOC36 on the Lewis lung carcinoma (LLC) model, was selected for testing the activity of CROMOC36 against primary tumor growth and metastasis formation. CROMOC36 was tested as a single agent and in combination with Cyclophosphamide (CYPP). In addition, single-agent CYPP was used as a reference compound, allowing comparison of the efficacy of CROMOC36 with a commonly used antitumor agent (summarized in FIG. 9).

PATU8902 = assay: Propidium iodide monolayer assay, PATU8902; format: cell-based, human; details: PATU8902, four days
Description: (§1) Monolayer Assay Propidium Iodid (PI). Cells were harvested from exponential phase cultures, counted and depending on the cell line 3.000 to 20.000 cells were plated in 96-well flat-bottom microtiter plates After a 24 h recovery period to allow cells to resume exponential growth, 10 μl of culture medium (four control wells/plate) or culture medium with the test compound were added by a liquid handling robotic system and treatment continued for four days. Compounds were applied in half-log increments at 10 concentrations in duplicate. Three independent experiments were performed. Cells were then washed with 200 μl PBS to remove dead cells followed by addition of 200 μl of a solution containing 7 μg/ml propidium iodide (PI) and 0.1% (v/v) Triton X-100. After an incubation period of 1-2 h at room temperature, fluorescence (FU) was measured using the Cytofluor 4000 microplate reader (excitation λ=530 nm, emission λ=620 nm) to quantify the amount of attached viable cells. […]
(§2) CROMOC36—in vitro activity Human pancreatic carcinoma cell lines. […] Antitumor activity was assessed after four days of CROMOC36 treatment using a propidium iodide based monolayer proliferation assay. […]

[3] = tested on: 4T1 breast tumor lung metastasis; assay: Organ-distribution in 4T1 breast tumor lung metastasis mouse model; details: four hours after i.v. 8 mg/kg, ex vivo total photon flux
Description: In vivo organ-distribution of CROMOC36-AF680 molecules in tumor containing mice. First orthotopic allograft 4T1 breast tumor lung metastasis mouse model was analyzed for CROMOC-AF680 distribution in vivo (FIG. 19A). Four hours after i.v. injection of 8 mg/kg of the CROMOC molecule labeled with the AF680 fluorescent dye, lungs containing 4T1cell metastasis were isolated and fluorescence intensity was assessed ex vivo (total photon flux shown on X-axis logarithmic scale).

PANC1 = assay: Propidium iodide monolayer assay, PANC1; format: cell-based, human; details: PANC1, four days
Description: as §1, §2

[4] = tested on: HCT116 human colon carcinoma xenograft with null p53 (HCT116 p53−/−); assay: HCT116 p53-/- xenograft, single agent and combination with cisplatin or vincristine; format: in vivo, female athymic nude mice
Description: A study was conducted to evaluate the efficacy and tolerability of CROMOC36 against an HCT116 human colon carcinoma xenograft model with null p53 (HCT116 p53−/−) in female athymic nude mice. CROMOC36 was administered subcutaneously (s.c.) three times at intervals of two weeks (q14dx3) as a single agent or in combination with cisplatin (CDDP) at 4 mg/kg or vincristine (VCR) at 2 mg/kg which were both administered five times at intervals of one week (q7dx5). CROMOC36 was tested at 32 mg/kg or using a decreasing dosage of 32-16-16 mg/kg. CDDP and VCR were also administered as single agents to allow comparison of the efficacy of CROMOC36 with commonly used anticancer drugs. The dose and schedule of CDDP and VCR treatments remained the same when tested as single agents or in combination with CROMOC36. […] Efficacy was also evaluated by measuring the tumor growth delay (TGD) and the number of regression responses.

primary hepatocytes = assay: SRB assay for 96 hours, primary hepatocytes; format: cell-based; details: non-tumor cells primary hepatocytes, SRB 96 hours
Description: Cells were harvested from exponential phase cultures, and depending on the cell line 10.000 to 30.000 cells were plated in 96-well flat-bottom microtiter plates. […] Compounds were applied at 9 concentrations eight wells/concentration). At least three independent experiments were performed. For SRB staining, cells were fixed with SRB01 for 1h at 4° C. (final concentration of TCA=10%) washed with a plate washer (Hydroflex, Tecan©) for five times with H2O; and stained with 100 μl of SRB02 at room temperature for 10 min following 4 washes in SRB03 and finally 100 μl of developer solution SRB04 for 5 minutes with shaking. Optical density was assessed using a plate-reader (Sunrise, Tecan©) at 540 nm. Concentrations required for 50% inhibition of cell growth (IC50) were calculated by non-linear regression (log[conc. of inhibitor] versus response (% T/C)) using the analysis software GraphPad Prism®, Prism 5 for windows, version 5.01 (GraphPad Software Inc., CA). (SRB Buffers FIG. 25).

[5] = tested on: human pancreatic tumor cell lines; assay: Propidium iodide based monolayer proliferation assay, panel of 13 human pancreatic tumor cell lines
Description: Monolayer Assay Propidium Iodid (PI). Cells were harvested from exponential phase cultures, counted and depending on the cell line 3.000 to 20.000 cells were plated in 96-well flat-bottom microtiter plates After a 24 h recovery period to allow cells to resume exponential growth, 10 μl of culture medium (four control wells/plate) or culture medium with the test compound were added by a liquid handling robotic system and treatment continued for four days. Compounds were applied in half-log increments at 10 concentrations in duplicate. Three independent experiments were performed. Cells were then washed with 200 μl PBS to remove dead cells followed by addition of 200 μl of a solution containing 7 μg/ml propidium iodide (PI) and 0.1% (v/v) Triton X-100. After an incubation period of 1-2 h at room temperature, fluorescence (FU) was measured using the Cytofluor 4000 microplate reader (excitation λ=530 nm, emission λ=620 nm) to quantify the amount of attached viable cells. Concentrations required for 50% inhibition of cell growth (IC50) were calculated by non-linear regression (log[conc. of inhibitor]versus response (% T/C)) using the analysis software GraphPad Prism®, Prism 5 for windows, version 5.01 (GraphPad Software Inc., CA).
CROMOC36—in vitro activity Human pancreatic carcinoma cell lines. The aim of this study was to investigate the antitumor activity of CROMOC36 in vitro on a panel of 13 human pancreatic tumor cell lines. Antitumor activity was assessed after four days of CROMOC36 treatment using a propidium iodide based monolayer proliferation assay. Up to four experiments were performed in each cell line, testing CROMOC36 at ten concentrations in half-log increments up to 1 μM. Taxol, an antitumor agent commonly used for the treatment of pancreatic cancer, was used as a reference compound and tested in half-log steps up to 0.3 μM.

[6] = CROMOC36 4 mg/kg, q2dx5, single agent
[7] = combination of CROMOC36 and CYPP

B1: CROMOC36: single chain PvuII endonuclease fused at its C-terminus to DDM36, PEGylated final product used in the Examples (protein)
chain: MSHPDLNKLLELWPHIQEYQDLALKHGINDIFQDNGGKLLQVLLITGLTVLPGREGNDAVDNAGQEYELKSINIDLTKGFSTHHHMNPVIIAKYRQVPWIFAIYRGIAIEAIYRLEPKDLEFYYDKWERKWYSDGHKDINNPKIPVKYVMEHGTKIYGSGGSGGSSHPDLNKLLELWPHIQEYQDLALKHGINDIFQDNGGKLLQVLLITGLTVLPGREGNDAVDNAGQEYELKSINIDLTKGFSTHHHMNPVIIAKYRQVPWIFAIYRGIAIEAIYRLEPKDLEFYYDKWERKWYSDGHKDINNPKIPVKYVMEHGTKIYGNSGSGKKKKKGKGSGLGSGKKKDPLGSGLGSGKKKKKGKGSGLGSGKKKDPLGST
modifications: PEGylated; peptide, CROMOC36
cardiotoxic effects [1]: no cardiotoxic effects were observed | inhibition of total number of metastases ([2]; CROMOC36 0.4 mg/kg): 24% | inhibition of total number of metastases ([2]; CROMOC36 4 mg/kg): 66% | reduction of number of large metastases [2, 6]: 69.1% | reduction of number of medium metastases [2, 6]: 49.2% | reduction of number of small metastases [2, 6]: 61.2% | tolerability ([2]; LLC model): No major issues | inhibition of number of metastases ([2]; combination of CROMOC36 (4 mg/kg) and CYPP (180 mg/kg)): 81% | final decrease in body weight (BW) compared to the start of the experiment [2, 7]: 3.7% | reduction of number of large metastases [2, 7]: 89.2% | reduction of number of medium metastases [2, 7]: 66.7% | reduction of number of small metastases [2, 7]: 81.1% | tumor growth inhibition (TI), primary tumor ([2]; simultaneous combination of CROMOC36 and CYPP): 85.6% | tumor growth inhibition (TI), primary tumor ([2]; single agent, CROMOC36 s.c. q2dx5): 15.2% | IC50 (PATU8902): 2.33 nM | enrichment in lungs of breast tumor metastasis containing animals versus tumor free animals [3]: more than 10.000 × | IC50 (PANC1): ~10 nM | tumor growth inhibition ([4]; CROMOC36 32 mg/kg s.c. q14dx3, single agent): 82.9% | partial regression response ([4]; CROMOC36 32-16-16 mg/kg): one | tumor-free survivor ([4]; CROMOC36 32-16-16 mg/kg): one | tumor growth inhibition with respect to single-agent CROMOC36 ([4]; CROMOC36 32-16-16 mg/kg in combination with CDDP or VCR): did not change significantly | persistence of inhibitory effect ([4]; CROMOC36 32-16-16 mg/kg, single agent or in combination with CDDP or VCR, three weeks after the last treatment): persisted until day 50 | tumor growth inhibition ([4]; CROMOC36 decreasing 32-16-16 mg/kg s.c. q14dx3, single agent): 91.6% | % TGD (tumor growth delay) ([4]; endpoint tumor volume of 1000 mm^3, CROMOC36 as single agent or in combination): > 117% | time to study endpoint (TTE) ([4]; endpoint tumor volume of 1000 mm^3, control Day 23, CROMOC36 as single agent or in combination): > 50 days | IC50 (primary hepatocytes): > 10000 nM | IC50 ([5]; 13 pancreatic cell lines, four days treatment, read-out: geomean IC50): 45.9 nM | antitumor activity ([5]; on five of the cell lines tested, up to 1 μM): no activity or only marginal activity
